Measured values as given in paper PMC8892516, “Intragenic suppressors unravel the role of the SCREAM ACT-like domain for bHLH partner selectivity in stomatal development” (Proceedings of the National Academy of Sciences of the …, 2022).

T1: SPCH-ACTL (285-364) (Arabidopsis thaliana, UniProt Q700C7 285-364)
T1 construct: also called SPCH ACTL domain; source: E. coli BL21, purified (glutathione resin, thrombin, Superdex-200); not shown: GST, N-terminal, cleaved
T1 sequence (looked up): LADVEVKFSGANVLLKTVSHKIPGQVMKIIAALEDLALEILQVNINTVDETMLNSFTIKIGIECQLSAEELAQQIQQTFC

T2: GST-fused SCRM (1-494) (Arabidopsis thaliana, UniProt Q9LSE2 1-494)
T2 construct: SCREAM (SCRM, ICE1), Arabidopsis thaliana, At3G26744, residues 1-494; GST kept for loading on anti-GST probes; also called GST SCRM; GST-tagged SCRM; source: E. coli BL21, purified (glutathione agarose resin); not shown: GST, N-terminal, kept
T2 sequence (looked up): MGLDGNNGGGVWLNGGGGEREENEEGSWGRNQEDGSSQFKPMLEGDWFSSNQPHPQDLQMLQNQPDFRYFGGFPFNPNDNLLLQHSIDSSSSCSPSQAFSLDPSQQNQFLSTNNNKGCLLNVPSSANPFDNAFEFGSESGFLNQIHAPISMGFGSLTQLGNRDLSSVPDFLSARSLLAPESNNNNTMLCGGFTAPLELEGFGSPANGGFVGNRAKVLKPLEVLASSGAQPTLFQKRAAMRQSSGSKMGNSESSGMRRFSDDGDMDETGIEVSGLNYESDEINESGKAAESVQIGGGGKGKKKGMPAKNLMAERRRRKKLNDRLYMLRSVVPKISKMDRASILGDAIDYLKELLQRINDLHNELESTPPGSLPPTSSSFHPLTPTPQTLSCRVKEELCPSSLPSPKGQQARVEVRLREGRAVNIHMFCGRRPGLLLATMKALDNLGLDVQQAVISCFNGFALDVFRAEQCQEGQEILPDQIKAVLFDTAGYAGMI

T3: SCRM (1-494), recombinant (Arabidopsis thaliana, UniProt Q9LSE2 1-494)
T3 construct: SCREAM (SCRM, ICE1), Arabidopsis thaliana, At3G26744, residues 1-494; the purification methods tell thrombin cleavage; source: E. coli BL21, purified (glutathione resin, thrombin, Superdex-200); not shown: GST, N-terminal, cleaved
T3 sequence (looked up): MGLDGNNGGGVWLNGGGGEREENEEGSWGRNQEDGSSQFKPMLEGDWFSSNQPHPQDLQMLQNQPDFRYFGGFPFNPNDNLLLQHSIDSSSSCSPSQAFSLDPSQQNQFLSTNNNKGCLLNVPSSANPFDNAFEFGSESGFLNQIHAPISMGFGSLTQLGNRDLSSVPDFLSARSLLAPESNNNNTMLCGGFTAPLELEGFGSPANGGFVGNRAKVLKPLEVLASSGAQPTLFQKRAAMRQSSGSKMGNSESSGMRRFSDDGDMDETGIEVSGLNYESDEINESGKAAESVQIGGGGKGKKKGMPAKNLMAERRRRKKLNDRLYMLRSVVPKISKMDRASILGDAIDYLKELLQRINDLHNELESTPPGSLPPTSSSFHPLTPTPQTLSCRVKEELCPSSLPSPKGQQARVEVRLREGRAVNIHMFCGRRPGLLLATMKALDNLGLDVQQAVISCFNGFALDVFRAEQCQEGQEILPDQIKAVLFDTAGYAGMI

T4: GST-fused SCRMΔC (1-404) (Arabidopsis thaliana, UniProt Q9LSE2 1-404)
T4 construct: SCREAM (SCRM, ICE1), Arabidopsis thaliana, At3G26744, residues 1-404; GST kept for loading on anti-GST probes; also called GST SCRMΔC; SCRM1ΔC; source: E. coli BL21, purified (glutathione agarose resin); not shown: GST, N-terminal, kept
T4 sequence (looked up): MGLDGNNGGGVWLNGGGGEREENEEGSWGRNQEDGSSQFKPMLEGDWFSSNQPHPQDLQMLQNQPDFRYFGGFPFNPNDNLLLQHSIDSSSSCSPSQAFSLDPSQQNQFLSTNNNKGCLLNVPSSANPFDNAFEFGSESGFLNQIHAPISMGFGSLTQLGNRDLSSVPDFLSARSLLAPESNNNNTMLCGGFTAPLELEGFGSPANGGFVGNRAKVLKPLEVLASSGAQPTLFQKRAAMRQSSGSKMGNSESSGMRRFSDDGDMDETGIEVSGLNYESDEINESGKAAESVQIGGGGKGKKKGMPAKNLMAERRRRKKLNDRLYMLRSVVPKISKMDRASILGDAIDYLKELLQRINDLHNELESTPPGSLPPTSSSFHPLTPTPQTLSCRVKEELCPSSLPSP

T5: SCRM ACTL (405-494) (Arabidopsis thaliana, UniProt Q9LSE2 405-494)
T5 construct: SCREAM (SCRM, ICE1), Arabidopsis thaliana, At3G26744, ACT-like domain, residues 405-494; also called SCRM ACTL domain; source: E. coli BL21, purified (glutathione resin, thrombin, Superdex-200); not shown: GST, N-terminal, cleaved
T5 sequence (looked up): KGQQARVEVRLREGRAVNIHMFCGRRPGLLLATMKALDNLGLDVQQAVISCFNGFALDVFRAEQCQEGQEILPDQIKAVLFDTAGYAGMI

B1: ΔNFAMA, recombinant (domain or fragment)
chain: ESQRMTHIAVERNRRKQMNEHLRVLRSLMPGSYVQRGDQASIIGGAIEFVRELEQLLQCLESQKRRRILGETGRDMTTTTTSSSSPITTVANQAQPLIITGNVTELEGGGGLREETAENKSCLADVEVKLLGFDAMIKILSRRRPGQLIKTIAALEDLHLSILHTNITTMEQTVLYSFNVKITSETRFTAEDIASSIQQIFSFIHANTNISGSSNLGNIVFT
modifications: Limits not printed. Start set by analogy with the printed ΔNSPCH 98-364, which starts one residue before its annotated bHLH (99); FAMA bHLH is 194-245. Runs to the native C-terminus, including the …
B2: ΔNSPCH (98-364), recombinant (domain or fragment, Arabidopsis thaliana, UniProt Q700C7 98-364, looked up)
chain: GQQKMSHVTVERNRRKQMNEHLTVLRSLMPCFYVKRGDQASIIGGVVEYISELQQVLQSLEAKKQRKTYAEVLSPRVVPSPRPSPPVLSPRKPPLSPRINHHQIHHHLLLPPISPRTPQPTSPYRAIPPQLPLIPQPPLRSYSSLASCSSLGDPPPYSPASSSSSPSVSSNHESSVINELVANSKSALADVEVKFSGANVLLKTVSHKIPGQVMKIIAALEDLALEILQVNINTVDETMLNSFTIKIGIECQLSAEELAQQIQQTFC
notes: BLI and ITC name it only SPCH; ΔNSPCH (98-364) is the only long recombinant SPCH construct that the methods list; also called purified SPCH; source: E. coli BL21, purified (glutathione resin, thrombin, Superdex-200); not shown: GST, N-terminal, cleaved
B3: SCRMΔC (1-404), recombinant (domain or fragment, Arabidopsis thaliana, UniProt Q9LSE2 1-404, looked up)
chain: MGLDGNNGGGVWLNGGGGEREENEEGSWGRNQEDGSSQFKPMLEGDWFSSNQPHPQDLQMLQNQPDFRYFGGFPFNPNDNLLLQHSIDSSSSCSPSQAFSLDPSQQNQFLSTNNNKGCLLNVPSSANPFDNAFEFGSESGFLNQIHAPISMGFGSLTQLGNRDLSSVPDFLSARSLLAPESNNNNTMLCGGFTAPLELEGFGSPANGGFVGNRAKVLKPLEVLASSGAQPTLFQKRAAMRQSSGSKMGNSESSGMRRFSDDGDMDETGIEVSGLNYESDEINESGKAAESVQIGGGGKGKKKGMPAKNLMAERRRRKKLNDRLYMLRSVVPKISKMDRASILGDAIDYLKELLQRINDLHNELESTPPGSLPPTSSSFHPLTPTPQTLSCRVKEELCPSSLPSP
notes: SCREAM (SCRM, ICE1), Arabidopsis thaliana, At3G26744, residues 1-404; the purification methods tell thrombin cleavage; also called SCRM1ΔC; source: E. coli BL21, purified (glutathione resin, thrombin, Superdex-200); not shown: GST, N-terminal, cleaved

Legend:
[1] = molecular target: T1, SPCH-ACTL (285-364); assay: ITC; Malvern PEAQ-ITC; 150 µM SCRM ACTL/SCRM L484F ACTL injected into 15 µM SPCH ACTL/MUTE ACTL; PBS, pH 7.2 (Table S3; methods: pH 7.4); 25 °C; means of two experiments; settings: both partners purified
[2] = molecular target: GST-fused SCRMΔC (1-404) (Arabidopsis thaliana) (UniProt Q9LSE2); assay: BLI; as a3, samples incubated for 30 min with a 1:4 molar ratio of the synthetic E-box DNA fragment
[3] = molecular target: T2, GST-fused SCRM (1-494); assay: BLI; Octet Red96; anti-GST probes loaded with 500 nM GST-SCRM or GST-SCRMΔC; SPCH/MUTE/FAMA as analyte at 3.12-200 nM; 30 °C; 1x PBS with 0.02% Tween 20; no DNA; 1:1 model; settings: both partners purified
[4] = molecular target: T3, SCRM (1-494), recombinant; assay: ITC; Malvern PEAQ-ITC, 25 °C, PBS pH 7.4; 40 μM SCRM/SCRMΔC injected into 4 μM SPCH/MUTE/FAMA; single binding site model; settings: both partners purified
[5] = molecular target: GST-fused SCRMΔC (1-404) (Arabidopsis thaliana) (UniProt Q9LSE2); assay: BLI; as a3, samples incubated for 30 min with a 1:4 molar ratio of the TMM promoter DNA fragment
[6] = molecular target: T4, GST-fused SCRMΔC (1-404); assay: BLI; Octet Red96; anti-GST probes loaded with 500 nM GST-SCRM or GST-SCRMΔC; SPCH/MUTE/FAMA as analyte at 3.12-200 nM; 30 °C; 1x PBS with 0.02% Tween 20; no DNA; 1:1 model; settings: both partners purified
[7] = molecular target: B3; assay: ITC; Malvern PEAQ-ITC, 25 °C, PBS pH 7.4; 40 μM SCRM/SCRMΔC injected into 4 μM SPCH/MUTE/FAMA; single binding site model; settings: both partners purified
[8] = molecular target: T5, SCRM ACTL (405-494); assay: ITC; Malvern PEAQ-ITC, 25 °C, PBS pH 7.4; 150 μM SCRM ACTL/SCRM L484F ACTL injected into 15 μM SPCH ACTL/MUTE ACTL; settings: both partners purified
[9] = molecular target: B1; assay: ITC; Malvern PEAQ-ITC, 25 °C, PBS pH 7.4; 40 μM SCRM/SCRMΔC injected into 4 μM SPCH/MUTE/FAMA; single binding site model; settings: both partners purified
[10] = molecular target: B2; assay: as above; settings: both partners purified

| Kd [3] [µM] | Kd [4] [µM] | Kd [6] [µM] | Kd [7] [µM] | Binder | also measured |
| --- | --- | --- | --- | --- | --- |
|  |  |  |  | SCRM ACTL L484F (405-494) (domain or fragment, Arabidopsis thaliana, UniProt Q9LSE2 405-494, looked up, SCREAM (SCRM, ICE1), Arabidopsis thaliana, At3G26744, C-terminal ACT-like domain, residues 405-494, with L484F (the methods print L485F); also called SCRM L484F ACTL; source: E. coli BL21, purified (glutathione resin, Superdex-200)) KGQQARVEVRLREGRAVNIHMFCGRRPGLLLATMKALDNLGLDVQQAVISCFNGFALDVFRAEQCQEGQEILPDQIKAVFFDTAGYAGMI | stoichiometry N [1]: 0.85 |
| 0.0073 ± 0.0015 | 0.0105 ± 0.0021 |  |  | MUTE (1-202), recombinant (natural protein, Arabidopsis thaliana, UniProt Q9M8K6 1-202, looked up, MUTE, Arabidopsis thaliana, residues 1-202; MUTE (1-202) was cloned both in pGEX-4T-1 (N-terminal GST, thrombin cleaved) and in pET28a (N-terminal His tag); also called purified MUTE; MUTE-HIS; source: E. coli BL21, purified (Ni-NTA, Superdex-200)) MSHIAVERNRRRQMNEHLKSLRSLTPCFYIKRGDQASIIGGVIEFIKELQQLVQVLESKKRRKTLNRPSFPYDHQTIEPSSLGAATTRVPFSRIENVMTTSTFKEVGACCNSPHANVEAKISGSNVVLRVVSRRIVGQLVKIISVLEKLSFQVLHLNISSMEETVLYFFVVKIGLECHLSLEELTLEVQKSFVSDEVIVSTN | Kd [2]: 0.545 µM; Kd [5]: 0.565 µM |
| 0.0082 ± 0.0021 | 0.0096 ± 0.0014 | 0.052 ± 0.0036 | 0.068 ± 0.0052 | B1 |  |
| 0.0052 ± 0.0011 | 0.0065 ± 0.0016 | 0.068 ± 0.0055 | 0.061 ± 0.0042 | B2 |  |
|  |  |  |  | MUTE-ACTL (114-202) (domain or fragment, Arabidopsis thaliana, UniProt Q9M8K6 114-202, looked up, MUTE, Arabidopsis thaliana, ACT-like domain, residues 114-202; source: E. coli BL21, purified (glutathione resin, thrombin, Superdex-200); not shown: GST, N-terminal, cleaved) HANVEAKISGSNVVLRVVSRRIVGQLVKIISVLEKLSFQVLHLNISSMEETVLYFFVVKIGLECHLSLEELTLEVQKSFVSDEVIVSTN | Kd [8]: 5.1 µM |
|  |  |  |  | B3 | stoichiometry N [9]: 1; stoichiometry N [10]: 1 |
